No end group written: not given here.
Assays:
Type in all cases: cell-based
δPKC = target: T1, δPKC (Rattus norvegicus, UniProt P09215); assay: Translocation of δPKC in primary cardiac myocytes (Western blot of soluble and particulate fractions)
T1 construct: endogenous in cells; host or cells: primary neonatal rat cardiac myocytes
Protocol: As described in Example 1, the δV1-1 and ψδRACK peptides were analyzed to determine whether the peptides had activity, and if so, whether the activity was as an agonist or an antagonist of δPKC. As will be shown, δV1-1, δV1-2 and δV1-5 are δPKC antagonists and ψδRACK is a δPKC agonist. In these studies, the δV1-1 and ψδRACK peptides were modified with a carrier peptide by cross-linking via an N-terminal Cys-Cys bond to the Drosophila Antennapedia homeodomain (SEQ ID NO:8; Théodore, L., et al.; Johnson, J. A. et al., 1996b). In other studies, not described here, the peptide was modified with Tat (SEQ ID NO:9) or with polyarginine (Mitchell et al., 2000; Rothbard et al., 2000) and gave results similar to those described herein. Details of the study are set forth in Example 1. In brief, the Antennapedia-conjugated peptides were introduced to cardiac cells at a concentration of 500 nM in the presence and absence of phorbol 12-myristate 13-acetate (PMA) or in the presence of each other. Translocation of δPKC isozyme was assessed by Western blot analysis cystosolic and particulate fractions of treated cells. Subcellular localization of δPKC isozyme was assessed by immunofluorescence by probing the blot with […], and anti-εPKC antibodies. Translocation was expressed as the amount of isozyme in the particulate fraction over the amount of isozyme in non-treated cells.
Primary cardiac myocyte cell cultures (90-95% pure) were prepared from newborn rats (Gray, M. O. et al.; Disatnik M.-H. et al.). The peptides δV1-1 and ψδRACK were introduced into cells at an applied concentration of 500 nM in the presence and absence of phorbol 12-myristate 13-acetate (PMA) at concentrations of 3 nm and 10 nm, respectively, for 10-20 minutes. In a third set of cells, the peptide δV1-1 was applied at a concentration of 500 nM in the presence and absence of 500 nM ψδRACK.
Translocation of δPKC isozyme was assessed by using δPKC isozyme-specific antibodies in Western blot analysis (Santa Cruz Biotechnology). Western blot analysis of cystosolic and particulate fractions of treated cells was carried out as described by Johnson et al., 1995. Subcellular localization of dPKC isozymes was assessed by chemiluminescence of blots probed with anti-δPKC, anti-αPKC and anti-εPKC antibodies. Amounts of PKC isozymes in each fraction was quantitated using a scanner and translocation is expressed as the amount of isozymes in the particulate fraction over the amount of isozymes in non-treated cells. Changes in translocation of δPKC isozyme were also determined by immunofluoresence study of treated and fixed cells (Gray et al., 1997). Translocation was determined by counting over 100 cells/treatment in a blinded fashion. The results are shown in FIG. 2A-2B, FIGS. 3A-3B and FIGS. 4A-4B.

εPKC = target: T2, εPKC (Rattus norvegicus, UniProt P09216); assay: Translocation of εPKC in primary cardiac myocytes (Western blot); conditions: data not shown
T2 construct: blots probed with anti-δPKC, anti-αPKC and anti-εPKC antibodies; endogenous in cells; host or cells: primary neonatal rat cardiac myocytes
T2 sequence (P09216 1-737): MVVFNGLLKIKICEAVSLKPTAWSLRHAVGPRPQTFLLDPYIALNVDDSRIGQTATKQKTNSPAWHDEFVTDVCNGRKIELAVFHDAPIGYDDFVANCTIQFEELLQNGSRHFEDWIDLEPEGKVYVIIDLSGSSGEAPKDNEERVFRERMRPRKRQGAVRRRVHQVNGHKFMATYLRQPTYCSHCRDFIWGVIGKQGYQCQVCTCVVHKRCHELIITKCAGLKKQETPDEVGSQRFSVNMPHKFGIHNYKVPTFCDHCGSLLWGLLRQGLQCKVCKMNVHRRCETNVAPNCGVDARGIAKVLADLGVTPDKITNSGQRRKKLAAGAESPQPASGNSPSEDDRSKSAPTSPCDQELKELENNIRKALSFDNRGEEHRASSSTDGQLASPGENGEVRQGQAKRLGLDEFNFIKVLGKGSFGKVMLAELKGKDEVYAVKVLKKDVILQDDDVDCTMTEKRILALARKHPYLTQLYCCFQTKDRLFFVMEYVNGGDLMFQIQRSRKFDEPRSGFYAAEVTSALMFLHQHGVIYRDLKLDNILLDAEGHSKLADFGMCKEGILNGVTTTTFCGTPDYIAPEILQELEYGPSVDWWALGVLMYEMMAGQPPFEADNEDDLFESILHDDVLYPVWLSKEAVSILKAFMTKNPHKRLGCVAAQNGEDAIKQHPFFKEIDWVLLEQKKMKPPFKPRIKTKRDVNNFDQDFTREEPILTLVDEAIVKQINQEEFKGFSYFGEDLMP
Protocol: (§1) As described in Example 1, the δV1-1 and ψδRACK peptides were analyzed to determine whether the peptides had activity, and if so, whether the activity was as an agonist or an antagonist of δPKC. As will be shown, δV1-1, δV1-2 and δV1-5 are δPKC antagonists and ψδRACK is a δPKC agonist. In these studies, the δV1-1 and ψδRACK peptides were modified with a carrier peptide by cross-linking via an N-terminal Cys-Cys bond to the Drosophila Antennapedia homeodomain (SEQ ID NO:8; Théodore, L., et al.; Johnson, J. A. et al., 1996b). […] Translocation of δPKC isozyme was assessed by Western blot analysis cystosolic and particulate fractions of treated cells. Subcellular localization of δPKC isozyme was assessed by immunofluorescence by probing the blot with […], and anti-εPKC antibodies. Translocation was expressed as the amount of isozyme in the particulate fraction over the amount of isozyme in non-treated cells. […]
(§2) Translocation of δPKC isozyme was assessed by using δPKC isozyme-specific antibodies in Western blot analysis (Santa Cruz Biotechnology). […] Subcellular localization of dPKC isozymes was assessed by chemiluminescence of blots probed with anti-δPKC, anti-αPKC and anti-εPKC antibodies. […] Changes in translocation of δPKC isozyme were also determined by immunofluoresence study of treated and fixed cells (Gray et al., 1997). […]

αPKC = target: T3, αPKC (Rattus norvegicus, UniProt P05696); assay: Translocation of αPKC in primary cardiac myocytes (Western blot); conditions: data not shown
T3 construct: blots probed with anti-δPKC, anti-αPKC and anti-εPKC antibodies; endogenous in cells; host or cells: primary neonatal rat cardiac myocytes
Protocol: as §1, §2

[1] = tested on: isolated adult rat cardiac myocytes; assay: Simulated ischemia in isolated cardiac myocytes, cell damage by osmotic fragility test (trypan blue uptake)
Protocol: In another study, the δPKC activator peptide, ψδRACK, and the δPKC inhibitor peptide, δV1-1 were administered to isolated rat cardiac myocytes to determine the role of δPKC in protection from ischemia. As described in Example 2, the Antennapedia carrier-peptide conjugate of δV1-1 and/or ψδRACK was introduced into isolated adult rat cardiac myocytes ten minutes prior to prolonged ischemia. Cell damage was assessed using an osmotic fragility test by measuring uptake of trypan blue.
Adult male Wistar rat cardiomyocytes were prepared on a Langendorff apparatus (van der Heide, R. S. et al.) by collagenase treatment (Armstrong, S. et al.). The cells were treated with δV1-1 at concentrations of 10 nM, 100 nM, 500 nM, and 1 μM in the presence or absence of 1 μM ψδRACK. βPKC-selective activator was used as a control.
For […] ischemia, adult myocytes treated in microcentrifuge tubes with δV1-1 and/or ψδRACK peptides conjugated to the carrier were washed twice with degassed glucose-free incubation buffer and pelleted. On top of a minimal amount of buffer, the cell pellets were overlaid with either a micro-balloon (Sig Manufacturing, Montezuma, Iowa) or with degassed buffer saturated with nitrogen, and sealed with an airtight top. Tubes were then incubated at 37 C for either 180 minutes or 90 minutes.
Cell damage was assessed by an osmotic fragility test by measuring the uptake of trypan blue added in a hypotonic (85 mosM) solution. Similar results were also obtained by using a live-dead kit (Molecular Probes) or measuring the release of […] to the medium using a kit (Sigma) as previously described (Chen, et al., 1999; Gray et al., 1997; Mackay et al., 1999).

T1 sequence (P09215 whole entry): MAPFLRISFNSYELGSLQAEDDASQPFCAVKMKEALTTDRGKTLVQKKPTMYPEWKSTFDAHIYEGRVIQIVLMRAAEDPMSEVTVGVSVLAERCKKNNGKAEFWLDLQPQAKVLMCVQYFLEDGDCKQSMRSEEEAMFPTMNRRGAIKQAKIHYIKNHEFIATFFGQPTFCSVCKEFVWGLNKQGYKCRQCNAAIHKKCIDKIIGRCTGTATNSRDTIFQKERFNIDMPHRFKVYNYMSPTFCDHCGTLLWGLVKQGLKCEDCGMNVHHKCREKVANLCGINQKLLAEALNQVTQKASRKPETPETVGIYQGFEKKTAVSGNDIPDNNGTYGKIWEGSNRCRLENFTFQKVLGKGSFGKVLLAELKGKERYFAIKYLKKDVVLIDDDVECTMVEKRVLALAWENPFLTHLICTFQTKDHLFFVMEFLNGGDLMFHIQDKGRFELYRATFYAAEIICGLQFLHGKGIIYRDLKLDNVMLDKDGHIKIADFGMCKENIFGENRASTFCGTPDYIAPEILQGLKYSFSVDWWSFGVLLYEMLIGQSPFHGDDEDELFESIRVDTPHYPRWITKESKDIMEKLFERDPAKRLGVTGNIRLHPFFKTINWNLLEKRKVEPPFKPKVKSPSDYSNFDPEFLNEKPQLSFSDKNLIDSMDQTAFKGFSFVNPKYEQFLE

Row | δPKC translocation induced by the peptide (δPKC; 500 nM Antennapedia-conjugated peptide, cardiac myocytes) | effect on the δV1-1 inhibition of basal δPKC partitioning (δPKC; 500 nM ψδRACK together with 500 nM δV1-1) | translocation of εPKC (εPKC) | translocation of αPKC (αPKC) | PMA-induced δPKC translocation (δPKC; 500 nM Antennapedia-conjugated peptide, with PMA, 10-20 minutes, newborn rat cardiac myocytes) | basal partitioning of δPKC in the particulate fraction (δPKC; 500 nM δV1-1, no ψδRACK) | Sequence | cardiac myocyte damage after ischemic insult ([1]; 1 μM ψδRACK, 180 minute ischemia) | effect of co-incubation on the δV1-1 protection from ischemia-induced damage ([1]; co-incubation with δV1-1, 180 minute ischemia, ψδRACK 1 μM) | ψδRACK-induced increase in cell damage ([1]; ischemia shortened to 90 minutes) | protection from ischemia-induced cell damage ([1]; 10 nM, 100 nM, 500 nM, 1 μM, given 10 minutes prior to 180 minute ischemia) | effect of co-treatment on the ψδRACK-induced increase in cell damage ([1]; 90 minute ischemia, co-treatment with ψδRACK)
1 | selectively induced | reversed | without affecting | without affecting |  |  | MRAAEDPM (also: conjugated to Antennapedia or Tat carrier; listed as Rattus norvegicus) [ψδRACK, tested conjugated to Antennapedia or Tat carrier] | slight increase | prevented | became significant |  | 
2 |  |  | did not inhibit | did not inhibit | inhibited | inhibited | SFNSYELGSL (also: conjugated to Antennapedia or Tat carrier; listed as Rattus norvegicus) [δV1-1, tested conjugated to Antennapedia or Tat carrier] |  |  |  | concentration-dependent level of protection | reversed

Reference: patent publication US6855693B2, “Peptides for activation and inhibition of δPKC” (The Board of Trustees of the Leland Stanford Junior …, priority 2001, dated 2005)
